Assay results reported in patent US20020049303.

Columns and labels:
[1] = target: oxidized bovine insulin B chain, P01317
[2] = target: T1, peptide from the processing site of presenilin 1 SVNM/AEGD
T1 chain: SVNMAEGD

[3] = target: recombinant pro-memapsin 2 (pro-M2pd)
[4] = target: T2, synthetic peptide NCH-gamma VGSGVLLSRK
T2 chain: VGSGVLLSRK

[5] = target: T3, synthetic peptide PS1-gamma LVNMAEGD
T3 chain: LVNMAEGD

[6] = target: T4, synthetic peptide from the APP beta-secretase site SEVKM/DAEFR
T4 chain: SEVKMDAEFR

[7] = target: T5, synthetic peptide from the APP beta-secretase site with the Swedish mutation SEVNL/DAEFR
T5 chain: SEVNLDAEFR

recombinant pro-memapsin 2 (pro-M2pd), sequence (chain, as listed by the source): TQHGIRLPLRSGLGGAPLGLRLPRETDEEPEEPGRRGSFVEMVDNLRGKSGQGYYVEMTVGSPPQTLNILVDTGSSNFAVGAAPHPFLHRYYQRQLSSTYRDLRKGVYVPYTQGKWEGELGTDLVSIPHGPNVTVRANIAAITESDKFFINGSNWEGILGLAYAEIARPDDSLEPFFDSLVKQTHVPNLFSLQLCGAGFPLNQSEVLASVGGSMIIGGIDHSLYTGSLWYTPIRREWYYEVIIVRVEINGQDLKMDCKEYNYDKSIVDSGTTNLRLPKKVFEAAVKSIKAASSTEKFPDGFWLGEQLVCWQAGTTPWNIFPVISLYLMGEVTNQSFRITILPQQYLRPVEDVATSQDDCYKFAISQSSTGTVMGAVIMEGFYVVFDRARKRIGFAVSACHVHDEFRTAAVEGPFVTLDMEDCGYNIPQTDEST
oxidized bovine insulin B chain, P01317, sequence (P01317 25-54): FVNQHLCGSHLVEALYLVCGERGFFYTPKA

B1: recombinant memapsin 2 (M2pd), auto-activated from pro-M2pd at pH 4.0 (protein)
chain: GIRLPLRSGLGGAPLGLRLPRETDEEPEEPGRRGSFVEMVDNLRGKSGQGYYVEMTVGSPPQTLNILVDTGSSNFAVGAAPHPFLHRYYQRQLSSTYRDLRKGVYVPYTQGKWEGELGTDLVSIPHGPNVTVRANIAAITESDKFFINGSNWEGILGLAYAEIARPDDSLEPFFDSLVKQTHVPNLFSLQLCGAGFPLNQSEVLASVGGSMIIGGIDHSLYTGSLWYTPIRREWYYEVIIVRVEINGQDLKMDCKEYNYDKSIVDSGTTNLRLPKKVFEAAVKSIKAASSTEKFPDGFWLGEQLVCWQAGTTPWNIFPVISLYLMGEVTNQSFRITILPQQYLRPVEDVATSQDDCYKFAISQSSTGTVMGAVIMEGFYVVFDRARKRIGFAVSA
B1 was tested, and the hydrolysis (Native proteins) was “Native proteins were not cleaved by M2pd”, the “hydrolytic sites (HPLC and mass spectrometry)” value (“hydrolytic sites” for short) [1] was “Two hydrolytic sites were identified on oxidized insulin B-chain” and the Km [2] was “Km, 15.2 mM”. For the same protein, the kcat [2] was “kcat, 0.67 s^-1”, the kcat/Km [2] was “kcat/Km, 43.8 s^-1M^-1” and the self-cleavage sites [3] was “M^2pd cleaved its pro peptide (2 sites) and the protease portion (2 sites) during a 16 h incubation after activation”. The “hydrolytic sites” value [4] was “Three hydrolytic sites were identified from peptide NCH-gamma”, the “hydrolytic sites” value [5] was “A single cleavage site was observed in synthetic peptide PS1-gamma” and the kcat/Km [6] was “kcat/Km, 39.9 s^-1M^-1”. The Km [7] was “Km, 1 mM”, the “fold increase of kcat/Km over native APP” value [7] was 60-fold increase of kcat/Km over that for native APP and the kcat [7] was “tcat, 2.45 s^-1”. For the same protein, the kcat/Km [7] was “kcat/Km, 2450 s^-1M^-1”.
